Here are results for one substance from patent US20070134215A1.

The experiment deals with BMP-2. As to the kind of experiment: cell-based or functional assay.

On to “Recombinant Mouse Noggin/Fc Chimera protein (R&D Systems) (from UniProt P97466 28-232) (Fc fusion)”, for which the appearance of beating EBs (myocardial differentiation-inducing effect of Noggin protein at 150 ng/mL on ES cells, floating culture) is more than 5 ng/mL.
